According to article PMC4770209, “Genome-wide binding studies reveal DNA binding specificity mechanisms and functional interplay amongst Forkhead transcription factors”:

What was measured:
FOXO3(130-271) [1] = target: T1, FOXO3(130-271) (UniProt O43524 130-271); assay: EMSA; competition; labelled WT probe; unlabelled WT competitor 25-200x; EMSA: 75 mM KCl, room temperature 30 min, 5% PAGE in 0.25x TBE at 4 C; pull-down conditions not in material; conditions: protein: recombinant; tags: 6xHis; label: radioactive label (probe); 5' overhang 4 nt at both ends
FOXK2(228-382) [2] = target: T2, FOXK2(228-382) (UniProt Q01167 228-382); assay: as above; conditions: protein: recombinant; tags: 6xHis; label: radioactive label (probe); 5' overhang 4 nt at both ends
FOXO3(130-271) [3] = target: T1, FOXO3(130-271); assay: competition; unlabelled competitor 25-200x; competes equally to WT; EMSA: 75 mM KCl, room temperature 30 min, 5% PAGE in 0.25x TBE at 4 C; pull-down conditions not in material; conditions: protein: recombinant; tags: 6xHis; 5' overhang 4 nt at both ends
FOXK2(228-382) [4] = target: T2, FOXK2(228-382); assay: as above; conditions: protein: recombinant; tags: 6xHis; 5' overhang 4 nt at both ends

T1 sequence (O43524 130-271): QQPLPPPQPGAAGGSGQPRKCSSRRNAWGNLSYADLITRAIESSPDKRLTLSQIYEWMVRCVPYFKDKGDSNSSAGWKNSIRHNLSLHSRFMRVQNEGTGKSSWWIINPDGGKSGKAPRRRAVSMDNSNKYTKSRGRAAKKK
T2 sequence (Q01167 228-382): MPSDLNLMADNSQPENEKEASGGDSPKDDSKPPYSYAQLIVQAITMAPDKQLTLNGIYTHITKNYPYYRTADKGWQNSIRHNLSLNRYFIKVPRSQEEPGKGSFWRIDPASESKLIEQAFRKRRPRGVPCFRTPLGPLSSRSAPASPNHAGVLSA

Row | Binder | binding result (FOXO3(130-271) [1]) | binding result (FOXK2(228-382) [2]) | binding result (FOXO3(130-271) [3]) | binding result (FOXK2(228-382) [4])
1 | CYP27C1 WT (ADS2782/ADS2783) (dsDNA) DNA 1: CTAGAACATGTTAATGTAAACAAGGAAGCCTG DNA 2: CTAGCAGGCTTCCTTGTTTACATTAACATGTT | binds | binds | – | –
2 | CYP27C1mut1 (ADS3737/ADS3738) (dsDNA) DNA 1: CTAGAACATGTTAGGGTAAACAAGGAAGCCTG DNA 2: CTAGCAGGCTTCCTTGTTTACCCTAACATGTT | – | – | binds | –
3 | CYP27C1mut2 (ADS3739/ADS3740) (dsDNA) DNA 1: CTAGAACATGTTAATGTAAACAGAGAAGCCTG DNA 2: CTAGCAGGCTTCTCTGTTTACATTAACATGTT | – | – | binds | binds
